In publication PMC6160918, “Stabilization of the CD81 Large Extracellular Loop with De Novo Disulfide Bonds Improves Its Amenability for Peptide Grafting” (Pharmaceutics, 2018):
Substitutions are numbered along the chain they refer to.

T1: wild-type human CD81 large extracellular loop (human), P60033
T1 chain: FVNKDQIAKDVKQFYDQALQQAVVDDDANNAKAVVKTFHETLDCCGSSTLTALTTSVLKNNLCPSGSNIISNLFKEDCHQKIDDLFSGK

B1: wild-type human CD81 large extracellular loop, P60033 113-201 (domain or fragment)
chain: T1 chain
B2: hCD81 LEL variant C10 (Val169Cys/Leu174Cys) (domain or fragment, human, UniProt P60033 113-201, looked up)
chain: T1 chain with V57C, L62C
notes: human CD81, large extracellular loop, fragment Phe113-Lys201; numbering according to PDB entry 1G8Q; Excluded from further analysis because of the dimer it formed; the dimer may be a disulfide-linked one (surmise); source: HEK293-6E, transfected, 2-mL scale (prescreening)

Columns and labels:
[1] = target: T1, wild-type human CD81 large …; assay: SEC-MALS; Superdex 200 Increase 10/300 GL, PBS with 200 mM NaCl, 0.75 mL/min, 200 µg of protein at about 2 mg/mL loaded; in-line MALS (miniDAWN TREOS II); details: remark: other sources report otherwise
[2] = target: the molecule itself; assay: not stated; prescreening of mutants expressed in HEK293-6E at a 2-mL scale; how the dimer was seen is not told

| Binder | stoichiometry N [1] | stoichiometry N [2] |
| --- | --- | --- |
| B1 | 2 |  |
| B2 |  | 2 |
